Ends that are not written are not given here.
Target: T1, Peptide 13 (TSESGELHGLTTE) (also: biotinylated)
T1 construct: Lies on the D-strand of TTR
T1 peptide: TSESGELHGLTTE
Experiment: indirect ELISA: biotinylated peptide 13 (TSESGELHGLTTE) captured on NeutrAvidin, antibody titrated, HRP secondary antibody, TMB, % max. binding, the axis is Log10 [Antibody] nM

B1: MFD108 (antibody, V domains shown)
VH: EVQLVESGGDLVKPGGSLKLSCAASGFTFSNYGMSWVRQTPDKRLEWVATITSGGSYTYYPDSVKGRFTISRDNAKNTLYLQMSSLKSEDTAMYYCARDGTAWFAYWGQGTLVTVSA
VL: DIQMTQTTSSLSASLGDRVTISCRASQDISNYLNWYQQKPDGTVKLLIYYTSRLHSGVPSRFSGSGSGTDYSLTISNLEEEDIATYFCQQGNTLRTFGGGTKLEIK
Q: B1 was tested. Which EC50 did it give?
A: 247 pM

— patent US20160039916A1 (MISFOLDING DIAGNOSTICS, published 2016)
